{"source": "patent CN111544600A", "about": "(UNIV CHINA PHARMA, dated 2020)", "binders": {"B1": {"name": "抗人DLL4人源化抗体H3L2 (antibody, V domains shown)", "VH": "QVQLVQSGAEVKKPGSSVKVSCKASGYTFSGYWMQWIKQAPGQGLEWIGAIYPGDGDTRYTQKFKGRATLTADKSTSTAYMELSSLRSEDTAVYYCAGGNFFFDYWGQGTLVTVSS", "VL": "EIVITQSPDFQSVTPKEKVTITCSVSSSISSSYLHWYQQKPDQSPKPWIYGTSNLASGVPSRFSGSGSGTDYTLTINSLEAEDAATYYCQQWSSSPLTFGQGTKLEIKV"}}, "molecular_target": "T1, 人DLL4抗原 (human, UniProt Q9NR61 27-524, limits assumed)", "T1 construct": "Coated at 1 μg/mL; also called Delta like 4", "T1 sequence (Q9NR61 27-524 limits assumed)": "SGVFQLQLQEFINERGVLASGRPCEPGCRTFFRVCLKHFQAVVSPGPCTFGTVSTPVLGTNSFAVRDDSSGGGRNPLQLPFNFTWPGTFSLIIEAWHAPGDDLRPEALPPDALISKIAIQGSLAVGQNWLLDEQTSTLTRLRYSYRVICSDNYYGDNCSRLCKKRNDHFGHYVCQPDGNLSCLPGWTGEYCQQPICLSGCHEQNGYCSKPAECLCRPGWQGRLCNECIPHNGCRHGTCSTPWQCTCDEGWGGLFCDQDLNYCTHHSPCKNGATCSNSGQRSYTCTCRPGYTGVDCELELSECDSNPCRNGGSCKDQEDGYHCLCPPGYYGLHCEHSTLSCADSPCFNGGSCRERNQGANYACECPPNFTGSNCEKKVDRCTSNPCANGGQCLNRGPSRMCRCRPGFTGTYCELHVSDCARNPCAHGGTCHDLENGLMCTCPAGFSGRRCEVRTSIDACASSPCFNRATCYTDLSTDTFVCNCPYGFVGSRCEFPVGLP", "experiment": "ELISA, DLL4 antigen coated on plate, HRP secondary antibody, OD450-OD630"}
{"binder": "B1", "values": [{"measurement": "EC50", "result": 49.2, "unit": "nM"}]}
